{"source": "paper PMC12694644", "origin": "cited, not measured here", "molecular_target": "IL-23 p19 (Homo sapiens) (UniProt Q9NPF7)", "sequence (Q9NPF7 20-189)": "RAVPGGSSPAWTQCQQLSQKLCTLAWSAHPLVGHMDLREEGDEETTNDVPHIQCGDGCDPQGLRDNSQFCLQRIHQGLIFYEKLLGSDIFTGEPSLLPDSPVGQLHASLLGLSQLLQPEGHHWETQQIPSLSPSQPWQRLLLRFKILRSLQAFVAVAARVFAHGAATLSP", "data": [{"substance": "Guselkumab", "values": [{"measurement": "Kd", "result": 3.3, "unit": "pM"}]}]}
